Article PMC4654935

What was measured:
[1] = target: Rab8A wild-type (recombinant) (human) (UniProt P61006)
[2] = target: Rab8A S111E (recombinant) (human) (UniProt P61006)
[3] = target: Rab8A S111A (recombinant) (human) (UniProt P61006)

B1: Rabin8(153-237) (domain or fragment)
chain: VREKGYERLKEELAKAQRELKLKDEECERLSKVRDQLGQELEELTASLFEEAHKMVREANIKQATAEKQLKEAQGKIDVLQAEVA
k cat/K M of Rabin8-catalysed mantGDP release from Rab8A (1 uM Rab, 100 uM GDP, 0.5 uM Rabin8, 25°C) [1]: 100000 M⁻¹ s⁻¹
k cat/K M of Rabin8-catalysed mantGDP release from Rab8A (1 uM Rab, 100 uM GDP, 0.5 uM Rabin8, 25°C) [2]: 7600 M⁻¹ s⁻¹
k cat/K M of Rabin8-catalysed mantGDP release from Rab8A (1 uM Rab, 100 uM GDP, 0.5 uM Rabin8, 25°C) [3]: 87000 M⁻¹ s⁻¹
